Consider 2 molecules from US20200190194A1 (GlaxoSmithKline, published 2020).

Assay [1] concerns the target T1, human ICOS ligand (B7-H2) (human, UniProt O75144 19-258, limits assumed).
T1 construct: it is treated as the same molecule; also called CD275; recombinant ICOS-L (R&D Systems)
T1 sequence (looked up): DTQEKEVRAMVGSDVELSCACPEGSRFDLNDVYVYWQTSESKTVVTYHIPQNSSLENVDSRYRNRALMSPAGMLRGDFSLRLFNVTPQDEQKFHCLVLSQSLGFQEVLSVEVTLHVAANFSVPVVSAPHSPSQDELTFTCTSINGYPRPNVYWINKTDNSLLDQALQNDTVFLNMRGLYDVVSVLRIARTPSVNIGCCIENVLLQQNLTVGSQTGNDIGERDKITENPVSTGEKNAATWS
Description: flow cytometry competition: activated T cells pre-incubated with recombinant ICOS-L (B7-H2), then stained with H2L5; CD8+ cells. On the technique in general: In flow cytometry, cells or beads pass a laser one at a time.

The target in assay [2] is T2, rabbit Fc-tagged recombinant extracellular human ICOS (human, UniProt Q9Y6W8 21-140).
T2 construct: also called dimeric human ICOS; not shown: rabbit Fc tag
T2 sequence: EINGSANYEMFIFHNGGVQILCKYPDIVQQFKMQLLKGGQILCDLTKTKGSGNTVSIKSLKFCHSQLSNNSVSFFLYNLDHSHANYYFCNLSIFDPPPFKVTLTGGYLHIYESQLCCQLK
Description: SPR (Biacore), compared with human ICOS-L binding to dimeric human ICOS (FIG. 15B).

B1: human ICOS on activated human T cells (receptor)
chain: EINGSANYEMFIFHNGGVQILCKYPDIVQQFKMQLLKGGQILCDLTKTKGSGNTVSIKSLKFCHSQLSNNSVSFFLYNLDHSHANYYFCNLSIFDPPPFKVTLTGGYLHIYESQLCCQLKFWLPIGCAAFVVVCILGCILICWLTKKKYSSSVHDPNGEYMFMRAVNTAKKSRLTDVTL
notes: the isoform 1 entry is named; also called cell surface ICOS; ICOS+ T cells (CD4, CD8, Treg)
Take B1: the binding result in assay [1] is “binds”.

B2: H2L5 IgG4PE (antibody, V domains shown)
VH: QVQLVQSGAEVKKPGSSVKVSCKASGYTFTDYAMHWVRQAPGQGLEWMGLISIYSDHTNYNQKFQGRVTITADKSTSTAYMELSSLRSEDTAVYYCGRNNYGNYGWYFDVWGQGTTVTVSS
VL: EIVLTQSPATLSLSPGERATLSCSASSSVSYMHWYQQKPGQAPRLLIYDTSKLASGIPARFSGSGSGTDYTLTISSLEPEDFAVYYCFQGSGYPYTFGQGTKLEIK
notes: Human IgG4 with Fc mutations S228P and L235E (EU numbering), called IgG4PE; humanized variant of murine clone 422.2; also called ICOS IgG4PE; H2L5 (ICOS) IgG4PE
As to B2, the “fold higher affinity than the ICOS-L/ICOS interaction” value in assay [2] is around 17 fold.
